Numbering of substitutions follows the chain as printed.

Seven molecules from patent publication US20170051047A1 (CANGENE, published 2017) can be followed below.

To fix the notation:
B1: CAN20G1 (antibody, V domains shown)
VH: QIQLVQSGPELKKPGETVKISCKASGYTFTNDGMNWVKQAPGKGLKWMGWINTNTGEPTYVEEFKGRFAFSLETSASTAYLQINNLKNEDTATYFCYVNYDYYTMDCWGQGTSVTVSS
VL: QVVLTQSPAIMSASLGERVTMTCTASSSVISSYLHWYQQKPGSSPKLWIYSTSTLASGVPARFSGSGSGTSYSLTISSMEAEDAATYYCLQYHRSPRTFGGGTKLEIK
B2: CAN20G5 (antibody, V domains shown)
VH: B1 VH with T28S, D32S, Q39E, V61A, K65M, M105I, C107Y
VL: B1 VL with V2I, I30Y, S32T, T54N, L90H
B3: CAN20G8 (antibody, V domains shown)
VH: B1 VH with T28A, V61A
VL: B1 VL with T54I
B4: HE-huCAN20G2 (antibody, V domains shown)
VH: B1 VH with D32Q, V61T, E62A, E63D, K65T, A76V, N85S, N88A, C107F, S113L
VL: DVQLTQSPSIMSASLGDRVTMTCTASSSVISTYLHWYQQKPGSSPKLWIYSTSTLASGVPPRFSGSGSGTDYSLTISSMEPEDAATYYCLQYHRSPRTFGGGTKVEIKR
B5: AVA-huCAN20G2 (antibody, V domains shown)
VH: B1 VH with D32Q, V61T, E62A, E63D, K65T, A76V, N85S, N88A, C107F, S113L
VL: DIQMTQSPSSLSASVGDRVTITCSASSSVISTYLNWYQQKPGKAPKVLIYSTSSLHSGVPSRFSGSGSGTDFTLTISSLQPEDFATYYCLQYHRSPRTFGQGTKVEIKR
B6: CDR-huCAN20G2 (antibody, V domains shown)
VH: QVQLVQSGSELKKPGASVKVSCKASGYTFTNQGMNWVRQAPGQGLEWMGWINTNTGEPTYAQGFTGRFVFSLDTSVSTAYLQISSLKAEDTAVYYCYVNYDYYTMDFWGQGTTVTVSS
VL: DIQMTQSPSSLSASVGDRVTITCRASSSVISTYLNWYQQKPGKAPKLLIYSTSSLQSGVPSRFSGSGSGTDFTLTISSLQPEDFATYYCLQYHRSPRTFGGGTKVEIK
B7: CAN20G2 (antibody, V domains shown)
VH: B1 VH with L11V, D32Q, V61T, C107F
VL: B1 VL with E17D, S32T, A61P

The target of one assay is T1, Clostridium difficile toxin A (whole toxin A) (Clostridium difficile, UniProt P16154 1-2710).
Experiment: not given
Consider B1, for which binding was put at a Kd of 1.79 nM, the koff was determined as 0.000219 s⁻¹ and the kon came out at 123000 M⁻¹ s⁻¹.
With B2, binding was put at a Kd of 2.01 nM, the koff is 0.000168 s⁻¹ and the kon is 83800 M⁻¹ s⁻¹.
For the molecule B3, binding was put at a Kd of 1.65 nM, the koff is 0.000216 s⁻¹ and the kon came to 131000 M⁻¹ s⁻¹.

For the next assay, the target named is T1, Clostridium difficile toxin A (whole …).
Experiment: not given
This is another data set of the same source.
As for B4, the Kd stood at 0.332 nM, the koff was 3.14e-05 s⁻¹ and the kon is 93900 M⁻¹ s⁻¹.
The corresponding values for B5 are 1.33 nM, 9.02e-05 s⁻¹ and 54500 M⁻¹ s⁻¹.
The corresponding values for B6 are 0.8 nM, 5.41e-05 s⁻¹ and 67600 M⁻¹ s⁻¹.

The target in a further assay is T2, Clostridium difficile toxin B (whole) (Clostridium difficile, UniProt P18177 2-2366).
T2 construct: mature
Description: Western blot.
On to B1, for which the binding result is “no binding (tested: 1 µg/ml)”.
On to B2, for which the binding result is given as “no binding (tested: 1 µg/ml)”.
The same measure, in the same setting: for B3 the value was “no binding (tested: 1 µg/ml)”.

In the next assay the target is T1, Clostridium difficile toxin A (whole …). The assay is described as follows: cell-based or functional assay.
For the molecule B1, the “EC50 Value (µg/mL), in vitro toxin A neutralization” value worked out at 0.17 µg/mL.
On the same count and under the same terms, for B2 the value was 0.13 µg/mL; for B7, 0.0101 µg/mL; for B3, 0.137 µg/mL.

One may read the Kd as a measure of binding affinity in units of concentration. Low readings indicate tighter binding, high ones weaker binding. What is called koff is the rate constant with which the complex falls apart. A high value points to fast dissociation. The term kon denotes the rate constant with which the complex forms.
